Experimental data taken from patent US7521540B2, “CYR61 compositions and methods” (Munin Corporation, priority 1996, dated 2009).

Assays:
HUVE cells = experiment: Cell spreading assay; format: cell-based, human; conditions: dishes coated with 10 μg/ml, 2 hours
Protocol: In another embodiment of the invention, the effect of murine Cyr61 on cell morphogenesis was assessed by a cell spreading assay. Polystyrene Petri dishes were coated with 2 ml of a 10 μg/ml solution of Cyr61 or fibronectin in PBS with 0.1% BSA and treated as described above. A third plate was treated with BSA and served as a control. Each dish received 7×10^6 cells and was incubated for 2 hours. Cell spreading was analyzed by microscopy at 100-fold magnification.

[1] = system: Human Microvascular Endothelial Cells; experiment: Endothelial cell migration, inverted modified Boyden chamber; format: cell-based
Protocol: In an alternative in vitro assay for angiogenic activity, an assay for endothelial cell migration was developed. […] Primary Human Microvascular Endothelial Cells (HMVEC PO51, Clonetics, San Diego, Calif.) were maintained in DME with 10% donor calf serum (Flow Laboratories, McLean, Va.) and 100 μg/ml endothelial celi mitogen (Biomedical Technologies Inc., Stoughton, Mass.). The cells were used between passages 10 and 15. To measure migration, cells were starved for 24 hours in DME containing 0.1% BSA, harvested, resuspended in DME with 0.1% BSA, and plated at 1.75×10^4 cells/well on the lower surface of a gelatinized 0.5 μm filter (Nucleopore Corporation, Pleasanton. Calif.) in an inverted modified Boyden chamber. After 1-2 hours at 37° C., during which time the cells were allowed to adhere to the filter, the chamber was reverted to its normal position. To the top well of separate chambers, basic Fibroblast Growth Factor (a positive control), Cyr61, or a negative control solution (conditioned medium known to lack chemoattractants or DME plus BSA, see below) was added at concentrations ranging from 10 ng/ml to 10 μg/ml. Chambers were then incubated for 3-4 hours at 37° C. to allow migration. Chambers were disassembled, membranes fixed and stained, and the number of cells that had migrated to the top of the filter in 3 high-powered fields was determined. Tolsma et al., J. Cell. Biol. 122:497-511 (1993) (incorporated by reference), and references cited therein. DME with 0.1% BSA was used as a negative control and either bFGF (10 ng/ml) or conditioned media from angiogenic hamster cell lines (20 μg/ml total protein) were used as positive controls. Rastinejad et al., Cell 56:345-355 (1989). Each sample was tested in quadruplicate (test compound such as Cyr61, positive control, conditioned medium as a negative control, and DME plus BSA as a negative control) in a single experiment; experiments were repeated at least twice.
To allow comparison of experiments performed on different days, migration data is reported as the percent of maximum migration towards the positive control, calculated after subtraction of background migration observed in the presence of DME plus BSA. […] Very high concentrations of thrombospondin (TSP) caused endothelial cells to detach from the membrane. Detachment was detected by counting cells on the lower face of the membrane. When cell loss exceeded 10%, the number of migrated cells was corrected for this loss. […] At 10 ng/ml, Cyr61 induced an average of 64 cells to migrate per three high-powered fields examined.

Focal Adhesion Kinase = experiment: Focal adhesion induction; format: cell-based
Source text: In addition, Cyr61 induces focal adhesion, i.e., cell surface foci for cytoskeletal attachments. Focal adhesion is effected by cell surface protein complexes or clusters. These protein clusters are complex, including a variety of receptors from the integrin family, and a variety of protein kinases. The induction of focal adhesion by Cyr61 is reflected in the capacity of Cyr61 to induce particular members of these cell surface protein clusters. […] Moreover, indirect immunofluorescence studies have shown that Cyr61 is bound to a receptor (see above) in focal adhesive plaques. The plaques, in turn, are characteristic of focal adhesion protein complexes. Focal Adhesion Kinase, Paxillin, and αVβ3 Integrin are co-localized to the focal adhesion plaques produced by focal adhesion complex formation induced by Cyr61. These focal adhesion protein complexes bind Cyr61 at the cell surface; the complexes also attach internally to the cytoskeleton. Therefore, murine Cyr61, and human Cyr61 (see below), are, in part, adhesion molecules, a characteristic distinguishing Cyr61 from conventional growth factors. […] Subsequently, bound Cyr61 is detected, e.g., by anti-Cyr61 antibody that is labeled using techniques known in the art, such as radiolabelling, fluorescent labeling, or the use of enzymes catalyzing calorimetric reactions. […]

B1: Cyr61: Cysteine-rich ECM signaling protein; murine sequence SEQ ID NO:2, recombinant from Baculovirus-infected Sf9 cells (protein, listed as Mus musculus)
chain: MSSSTFRTLAVAVTLLHLTRLALSTCPAACHCPLEAPKCAPGVGLVRDGCGCCKVCAKQLNEDCSKTQPCDHTKGLECNFGASSTALKGICRAQSEGRPCEYNSRIYQNGESFQPNCKHQCTCIDGAVGCIPLCPQELSLPNLGCPNPRLVKVSGQCCEEWVCDEDSIKDSLDDQDDLLGLDASEVELTRNNELIAIGKGSSLKRLPVFGTEPRVLFNPLHAHGQKCIVQTTSWSQCSKSCGTGISTRVTNDNPECRLVKETRICEVRPCGQPVYSSLKKGKKCSKTKKSPEPVRFTYAGCSSVKKYRPKYCGSCVDGRCCTPLQTRTVKMRFRCEDGEMFSKNVMMIQSCKCNYNCPHPNEASFRLYSLFNDIHKFRD
**Q.** What does the source list for B1?
**A.** HUVE cell spreading (HUVE cells): induces HUVE cell spreading to approximately the same extent as fibronectin; migrated cells per three high-powered fields ([1]; 10 ng/ml): 64 cells; migrated cells per three high-powered fields ([1]; 100 ng/ml): approximately 72 cells; migrated cells per three high-powered fields ([1]; 1 μg/ml): 87 cells; migrated cells per three high-powered fields ([1]; 10 μg/ml): approximately 57 cells; migrated cells per three high-powered fields ([1]; approximately 7 μg/ml): about 61 cells; phosphorylation of focal adhesion proteins (Focal Adhesion Kinase): induces the phosphorylation of Focal Adhesion Kinase
